Measurements as given in article PMC10746202.

What was measured:
[1] = molecular target: lactoferrin (Homo sapiens) (UniProt P02788); details: cited from earlier work
[2] = molecular target: recombinant WU2 (r)PspA possessing only αHD and PRD (Streptococcus pneumoniae serotype 3 strain WU2); assay: SPR; Biacore T200; kinetic study, LF at several concentrations in PBS-P+ injected over rPspA amine-coupled to a CM5 chip; 25°C; fitted to a two-state binding curve

Substance | Kd [1] [nM] | Kd [2] [nM]
mGAPDH (from UniProt P04406) | 43.8 | –
recombinant lactoferrin (from UniProt P02788 20-710) (natural protein) | – | 3.89
